Measured values taken from patent publication US20190023782A1 (SHANGHAI JUNSHI BIOSCIENCES, published 2019).

T1: Macaca fascicularis PD-1 (Macaca fascicularis)
T1 construct: also called cyno PD-1
T1 chain: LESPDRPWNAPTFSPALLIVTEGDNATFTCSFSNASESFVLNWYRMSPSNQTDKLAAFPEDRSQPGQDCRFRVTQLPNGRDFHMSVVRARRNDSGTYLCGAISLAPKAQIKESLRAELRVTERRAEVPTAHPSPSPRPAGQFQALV


Assays:
[1] = molecular target: T2, rh-PD-1 recombinant protein (human, UniProt Q15116 25-170, limits assumed); experiment: ELISA, rh-PD-1 coated at 1 ug/ml, antibody at 1 ug/ml
T2 construct: also called human-derived PD-1; PD-1 protein
T2 sequence (Q15116 25-170 limits assumed): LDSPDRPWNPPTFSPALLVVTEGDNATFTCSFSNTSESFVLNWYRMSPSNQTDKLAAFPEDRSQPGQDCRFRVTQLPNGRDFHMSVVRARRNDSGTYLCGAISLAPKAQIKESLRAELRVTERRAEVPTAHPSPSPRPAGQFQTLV
Description: The next day, solution was removed from the wells and the wells were washed three times with a washing buffer (PBS+0.5% TWEEN). PBS solution containing 3% BSA was added to the wells to block for 20 minutes. After washing three times with the washing buffer, 100 ul of each antibody clone was added at 1 ug/ml and incubated at room temperature for 1 hour. After three washes with the washing buffer, HRP cross-linked goat anti mouse antibody (Jackson Immunoresearch) was diluted in the washing buffer 1: 0000, and added to the sample wells and incubated at room temperature for 1 hour. After three washes with the washing buffer, 50 ul TMB (tetramethyl benzidine) substrate solution was added to develop the color. The color reaction was terminated after the reaction was continued for 10 minutes at room temperature by adding 25 ul of 0.5M sulfuric acid solution to the reaction mixture. The absorbance was then measured at 450 nm.

[2] = molecular target: T2, rh-PD-1 recombinant protein; experiment: ELISA on PD-1 protein
[3] = molecular target: T2, rh-PD-1 recombinant protein; experiment: ELISA, PD-1 coated at 1 ug/ml, goat anti-human HRP detection
Description: (§1) 1 ug /ml of human-derived PD-1, Macaca fascicularis PD-1, and mouse-derived PD-1 (Sinobiological) in the carbonate buffer solution (0.05 M PH9) were prepared and used to coat the wells of the 96-well flat-bottom plates at 4° C. overnight. The next day, solution was removed from the wells and the wells were washed three times with a washing buffer. PBS solution containing 3% BSA was added to block the wells for 20 minutes. […] The mixture was incubated at room temperature for 1 hour and then washed three times with a washing buffer. A HRP conjugated goat anti human antibody (Jackson Immunoresearch) was first diluted to 1: 10000 with the washing buffer and then added to the wells to incubate at room temperature for 1 hour. After washing three times with the washing buffer, 50 ul TMB substrate solution was added to the wells to develop the color. After 10 minutes at room temperature, the color development reaction was terminated with 25 ul 0.5M sulfuric acid solution and the absorbance was read at 450 nm.

Macaca fascicularis PD-1 = molecular target: T1, Macaca fascicularis PD-1; experiment: as above
Description: as §1

Binder | EC50 [2] [nM] | other results
Clone 11 (antibody, V domains shown, Mouse hybridoma antibody; also called antibody candidate Clone 11) VH: QVTLKESGPGILQPSQTLSLTCSFSGFSLSTFGMGVGWIRQPSGKGLEWLAHIWWDDDKYYNPALKSRLTISKNTSKNQVFLKIANVDTEDTATYYCARIEERFRWYFDVWGTGTTVTVSS VL: RAGWTQESALTTSPGETVTLTCRSSTGAITTSNYANWVQEKPDHLFTGLIGGTNNRAPGVPARFSGSLIGDKAALTITGAQTEDEAIYFCALWYSNHWVFGGGTKLTVL |  | binding result [1]: binds
H1L1 (antibody, V domains shown, also called original antibody 1 (heavy chain 1, light chain 1)) VH: QGQLQQSGAELVRPGASVTLTCKASGYTFTDYEMHWVKQTPIHGLEWIGVIESETGGTAYNQKFKGKAKLTADKSSSTAYMELRSLTSEDSAVYYCTREGITTVATTYYWYFDVWGTGTTVTVSS VL: DVLMTQTPLSLPVSLGDQASISCRSSQSIVHSNGNTYLEWYLQKPGQSPELLIYKVYNRFSGVPDRFSGSGSGTDFTLKISRVEAEDLGVYYCFQGSHVPFTFGSGTKLEIK | 0.338 | 
H10L10 (antibody, V domains shown, also called original antibody 10 (heavy chain 10, light chain 10)) VH: QVQLQQSGAELVRPGASVTLSCKASGYTFTDYEMHWVKQTPVHGLEWIGAIDPETGGAAYNQKFKGKAILTADKSSSTAYMELRSLTSEDSAVYYCTREGITTSVVTYYWYFDVWGTGTTVTVSS VL: DVLMTQTPLSLPVSLGDQASISCRSSQSIVHSNGNTYLEWYLQKPGQSPKLLIYKVSNRFSGVPDRFSGSGSGTDFTLRISRVEPEDLGVYYCFQGSHVPLTFGSGTKLEIK | 0.426 | 
H1L10 (antibody, V domains shown, also called recombinant antibody H1L10 (heavy chain 1, light chain 10)) VH: QGQLQQSGAELVRPGASVTLTCKASGYTFTDYEMHWVKQTPIHGLEWIGVIESETGGTAYNQKFKGKAKLTADKSSSTAYMELRSLTSEDSAVYYCTREGITTVATTYYWYFDVWGTGTTVTVSS VL: DVLMTQTPLSLPVSLGDQASISCRSSQSIVHSNGNTYLEWYLQKPGQSPKLLIYKVSNRFSGVPDRFSGSGSGTDFTLRISRVEPEDLGVYYCFQGSHVPLTFGSGTKLEIK | 0.27 | 
humanized antibody Clone 41 (antibody, V domains shown, Humanized antibody; also called hu41) VH: QGQLVQSGAEVKKPGASVKVSCKASGYTFTDYEMHWVRQAPGQGLEWMGVIESETGGTAYNQKFQGRVTLTADKSSSTAYMELSSLRSEDTAVYYCTREGITTVATTYYWYFDVWGQGTLVTVSS VL: DVVMTQSPLSLPVTLGQPASISCRSSQSIVHSNGNTYLEWYLQKPGQSPQLLIYKVSNRFSGVPDRFSGSGSGTDFTLKISRVEAEDVGVYYCFQGSHVPLTFGQGTKLEIK |  | binding result [3]: binds; binding result (Macaca fascicularis PD-1): binds
H10L1 (antibody, V domains shown, also called recombinant antibody H10L1 (heavy chain 10, light chain 1)) VH: QVQLQQSGAELVRPGASVTLSCKASGYTFTDYEMHWVKQTPVHGLEWIGAIDPETGGAAYNQKFKGKAILTADKSSSTAYMELRSLTSEDSAVYYCTREGITTSVVTYYWYFDVWGTGTTVTVSS VL: DVLMTQTPLSLPVSLGDQASISCRSSQSIVHSNGNTYLEWYLQKPGQSPELLIYKVYNRFSGVPDRFSGSGSGTDFTLKISRVEAEDLGVYYCFQGSHVPFTFGSGTKLEIK | 0.528 | 
